Assay results from PMC314469, “Protein Interaction Networks by Proteome Peptide Scanning” (PLoS Biology, 2004).

Legend:
[1] = molecular target: endophilin SH3 (SH3G2_HUMAN), Q99962; assay: SPOT array
[2] = molecular target: T1, amphyphisin SH3 (AMPH_HUMAN), P49418; assay: SPOT array
T1 chain: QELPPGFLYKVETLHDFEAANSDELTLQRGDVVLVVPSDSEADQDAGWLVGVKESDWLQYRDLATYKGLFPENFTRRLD

| Binder | normalised SPOT signal, Boehringer light units (BLU); mean over the file's lines of this peptide [1] | normalised SPOT signal, Boehringer light units (BLU); mean over the file's lines of this peptide [2] |
| --- | --- | --- |
| VMARLSRPERPDLV [Q9HCS7 3-16] | 1160 | 1410 |
| VMASLRRPKRIIIR [P78527 3728-3741] | 177 | 743 |
| VPLPPARPPTRDNP [Q13191 775-789] | 592 | 1730 |
| VPSLPIRPSRAPSR [O43426 1061-1074] | 24800 | 21500 |
| VPKPPPKPPSPPAP [P17405 180-194] | 352 | 71.9 |
| VPPRPPRPPETART [P52849 69-83] | 5710 | 5100 |
| VLTALRRPARSSWH [Q8WW71 300-313] | 395 | 1860 |
| VQPQLRRPFELLIA [Q96QT6 202-215] | 41 | 33.9 |
| VNRGPKRPKVLQRG [Q9UDR8 470-483] | 142 | 9 |
| VQSIINRPRKSPLP [O75970 1239-1252] | 84.7 | 109 |
| VPPGLRRPGPGTLY [P56945 374-387] | 43.6 | 41.5 |
| VNLKLRRPSFRDDI [O00467 301-314] | 60.4 | 60.6 |
| VNVVFRRPLRPADP [Q96FY0 68-81] | 266 | 768 |
| VRLPFHRPPRAGAW [Q9UKN7 887-900] | 455 | 2830 |
| VNEGPPKPPTELEP [AAH32298 448-462] | 3.4 | 19.8 |
| SLGLPSRPPSQLSG [Q8TBS2 64-78] | 101 | 42.4 |

| Binder | normalised SPOT signal, Boehringer light units (BLU); mean over the file's lines of this peptide [1] | normalised SPOT signal, Boehringer light units (BLU); mean over the file's lines of this peptide [2] |
| --- | --- | --- |
| VPQKPERPPLPPEP [Q9H7F7 96-110] | 4660 | 216 |
| SKKGFRRPSEKNQH [P17010 781-794] | 32 | 33.1 |
| VPMPIARPARQTSR [Q9Y6R4 202-215] | 1680 | 9590 |
| VPRDLRRPASLIGQ [O60503 967-980] | 19.5 | 25.8 |
| VNRPLVRPQKRLSS [Q9BWX5 222-235] | 6270 | 253 |
| VLQHLRRPVALQLD [Q9HC29 785-798] | 58.9 | 43.5 |
| VRPPPARPPSGPGL [BAC04982 161-175] | 13000 | 966 |
| VPQKPERPPLPPKP [Q96C88 96-110] | 13800 | 2630 |
| VRRIPTRPPRAPRL [Q9NWD7 62-76] | 14400 | 25000 |
| VRLLIRRPESFGPA [Q92736 2321-2334] | 539 | 15.5 |
| VLPPPPRPPQRRSR [BAC05199 62-76] | 21900 | 23100 |
| VMQSLRRPSSSGSS [O60269 443-456] | 1190 | 45.5 |
| VPPPPARPPPRSAR [Q8WY41 65-79] | 11800 | 14700 |
| VNIVPKKPPLLDRP [Q96NB9 30-44] | 114 | 34.8 |
| VPGDPRRPYPTDLE [Q9NPJ6 168-181] | 39.7 | 11.9 |
